Laboratory results from patent publication US20260209387A1, “SINGLE-DOMAIN ANTIBODY FOR INHIBITION OF NEUTROPHIL ELASTASE ACTIVITY” (UNIVERSITE DE LIEGE, priority 2023, published 2026).

T1: mouse neutrophil elastase (mouse, UniProt Q3UP87 29-265, limits assumed)
T1 construct: also called mNE; murine elastase
T1 sequence (looked up): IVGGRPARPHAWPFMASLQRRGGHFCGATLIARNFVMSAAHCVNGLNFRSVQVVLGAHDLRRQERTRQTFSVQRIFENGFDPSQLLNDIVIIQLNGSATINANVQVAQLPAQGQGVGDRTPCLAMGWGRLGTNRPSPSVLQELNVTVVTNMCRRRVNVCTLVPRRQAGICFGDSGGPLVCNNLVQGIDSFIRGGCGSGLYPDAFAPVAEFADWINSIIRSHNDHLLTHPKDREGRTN

T2: human neutrophil elastase (human, UniProt P08246 30-247, glycans (NAG-NAG-FUC) at N109 and N204, chymotrypsinogen numbering, seen in the crystal)
T2 sequence: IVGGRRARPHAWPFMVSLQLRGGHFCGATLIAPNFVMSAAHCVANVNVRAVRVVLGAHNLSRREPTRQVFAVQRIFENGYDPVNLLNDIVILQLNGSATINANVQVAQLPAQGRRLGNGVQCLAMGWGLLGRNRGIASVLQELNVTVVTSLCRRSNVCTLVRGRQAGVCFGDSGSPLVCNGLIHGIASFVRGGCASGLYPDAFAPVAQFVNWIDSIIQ

T3: human proteinase 3 (human, UniProt P24158 28-248)
T3 sequence (looked up): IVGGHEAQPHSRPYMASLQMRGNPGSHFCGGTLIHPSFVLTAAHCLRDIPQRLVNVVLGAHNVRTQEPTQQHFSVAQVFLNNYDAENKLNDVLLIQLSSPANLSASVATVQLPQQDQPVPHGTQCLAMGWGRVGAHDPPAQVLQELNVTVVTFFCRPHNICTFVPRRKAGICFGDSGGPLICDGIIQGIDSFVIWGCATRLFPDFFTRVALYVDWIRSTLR

T4: human cathepsin G (human, UniProt P08311 21-244)
T4 construct: also called hCG; CG
T4 sequence (looked up): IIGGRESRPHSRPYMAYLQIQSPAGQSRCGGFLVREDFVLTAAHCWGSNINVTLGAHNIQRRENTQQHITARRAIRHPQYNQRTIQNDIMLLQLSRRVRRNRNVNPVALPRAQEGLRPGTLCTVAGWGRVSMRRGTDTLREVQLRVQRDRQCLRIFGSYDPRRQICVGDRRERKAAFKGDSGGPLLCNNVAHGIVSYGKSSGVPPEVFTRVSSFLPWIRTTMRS

B1: NbE201 (VHH)
VHH: QVQLQESGGGLVQAGGSLRLSCVVPGRTISLYRMGWFRQAPGKEREFVAGINWSGDMTDYVDSVKGRFTISRDNAKNTVYLEMNSLKPEDTAIYYCTADPKLLPLADSSYGYWGQGTQVTVSS
notes: Llama VHH made in the periplasm of E. coli WK6 (pHEN6 vector) and purified by IMAC; This form was used in the enzymatic assays and for crystallisation; also called NbE201 wt; NbE201-WT
B2: biotinylated NbE201 (VHH)
VHH: QVQLQESGGGLVQAGGSLRLSCVVPGRTISLYRMGWFRQAPGKEREFVAGINWSGDMTDYVDSVKGRFTISRDNAKNTVYLEMNSLKPEDTAIYYCTADPKLLPLADSSYGYWGQGTQVTVSS
modifications: C-terminal Cys biotinylated with EZ-Link Maleimide-PEG2-Biotin
notes: Form immobilised on streptavidin sensors in all BLI experiments; It was produced in the pHEN25 vector and biotinylated site-specifically on its C-terminal Cys; also called NbE201_Cter Biot; biotinylated ISVD NbE201

Tests used:
[1] = biological target: T1, mouse neutrophil elastase; experiment: enzymatic assay, substrate MeOSuc-Ala-Ala-Pro-Val-AMC, Morrison equation for tight binders, N=6
Description: The substrate used were Succinyl-Ala-Ala-Ala-paraNitroAnilide (1 mM in 0.1 M Tris pH 7.5 with NaCl 0.5 M and NaN3 0.01%, % w/v from Sigma-Aldrich) for pPE, MeOSuc-Ala-Ala-Pro-Val-AMC (100 μM in Tris 50 mM, NaCl 1 M, 0.05% (% w/v) Brij-35, pH 7.5) for mNE, N-Succinyl-Ala-Ala-Pro-Phe p-nitroanilide (0.45 mM in 100 mM HEPES pH 7.5, from Sigma Aldrich) for hCG and Boc-Ala-Ala-Nva-SBzl (0.22 mM in 100 mM MOPS pH 5.0 0.5 M NaCl, 100 μM DTNB, DMSO 10%, from EPC) for PR3. mNE (rmELA2 from R&D systems, United Kingdom) was first activated according to the supplier information. In brief, mNE was incubated with recombinant mouse active cathepsin C/DPPIy (rmCathepsin C from R&D systems) in MES 50 mM, NaCl 50 mM, pH 5.5 for 2 h at 37° C. […] The hydrolysis of the substrate and the determination of the residual activity were carried out as explained above for the inhibition of hNE.

[2] = biological target: T2, human neutrophil elastase; experiment: cell-based or functional assay
[3] = biological target: T3, human proteinase 3; experiment: cell-based or functional assay
[4] = biological target: T2, human neutrophil elastase; experiment: cell-based or functional assay; remark: listed apart in the source
[5] = biological target: T1, mouse neutrophil elastase; experiment: cell-based or functional assay
[6] = biological target: T2, human neutrophil elastase; experiment: enzymatic assay, substrate N-Succinyl-Ala-Ala-Ala-pNA, Morrison equation for tight binders, N=3
Description: Inhibition of the hydrolysis of a chromogenic substrate. […] Briefly, hNE (Elastin products company, EPC, United States) was resuspended at 1 mg·mL⁻¹ in 50 mM sodium acetate buffer pH 5 containing 100 mM NaCl and stored at 4° C. The substrate Succinyl-Ala-Ala-Ala-paraNitroAnilide was dissolved at 1 mM in 0.1 M Tris pH 7.5 with NaCl 0.5 M and NaN3 0.01% (% w/v) and stored at 4° C. 230 μl of substrate (1 mM) were mixed with 10 μl of Bovine Serum Albumin 9 μM (BSA, Sigma-Aldrich, Germany) and incubated 20 min at 25° C. in a clear flat bottom 96-well plate (Greiner Bio-One, Belgium). […] Immediately after, the hNE was added to the mix at a final concentration of 50 nM. […] The initial velocity determined in the presence of the ISVD at different Nb: hNE ratios was compared to that measured in the absence of the ISVD, to determine the residual activity. The delay between the addition of hNE and the first measurement was about 100 seconds. […] In some experiments, the ISVD was preincubated for 15 minutes with the hNE and the complex was added to the substrate.
The Kᵢ was calculated averaging three Kᵢ of three independent curves, each curve representing experiment carried out with a different lot of production of the Nb.

[7] = biological target: T1, mouse neutrophil elastase; experiment: BLI (Octet HTX), NbE201_Cter Biot on streptavidin sensor, mNE as analyte, 1:1 fit, N=1
Description: FIG. 9. […] On the x-axis, the time in seconds. On the y-axis, the interference signal in nm. The dashed line separates the association step from the dissociation step. In black, the experimental signal. In grey, the fitting using a 1:1 model. The mNE concentrations tested are 100-50-25-12.5-6.25-3.125 nM, from top to bottom. Association and dissociation kinetics were measured for 300 s and 600 s respectively. The obtained sensorgrams were fitted to a 1:1 model by using the Data Analysis Octet Software Version 10.0 (Sartorius) to derive the rate constants for association (kₒₙ) and dissociation (koff) and the equilibrium dissociation constant (KD=koff/kₒₙ).
(§1) Then, the biosensors were immersed in a solution of hNE at different concentrations ([…]-0.753 nM). Association and dissociation kinetics were measured for 180 s and 300 s respectively, in 10×KB buffer. All the experiments were carried out at 30° C. in 96-wells or 384-wells black-bottom microplates in polypropylene (Greiner Bio-One, Belgium) and with orbital agitation (1500 rpm). The sensorgrams obtained were fitted globally to a 1:1 model to derive the rate constants for association (kₒₙ) and dissociation (koff) and the equilibrium dissociation constant (KD=koff/kₒₙ). […] were carried out. The error on KD was calculated using the following equation: […]

[8] = biological target: T2, human neutrophil elastase; experiment: BLI (Octet HTX), biotinylated NbE201 on streptavidin sensor, hNE as analyte, global 1:1 fit, N=2
Description: FIG. 6. […] On the x-axis, the time in seconds. On the y-axis, the interference signal in nm. A vertical dashed line divides the association step from the dissociation step. […] Each curve (in black) represents measured data (□□) referring to a single concentration of hNE used: 25 nM, 6.25 nM, 3.125 nM, 1.563 nM and 0.753 nM (from top to bottom). In grey, is represented the fitting of the data from which the KD value and kinetic parameters were derived. Data were fitted accordingly to a 1:1 ligand model by using the Data Analysis Octet Software Version 10.0 (Satorius). Independent replicates of the experiment were done (N=2) and the mean (±st. dev.) of the kinetics parameters measured and indicated in Table 2.
as §1

[9] = biological target: T5, porcine pancreatic elastase (pig, UniProt P00772 27-266); experiment: BLI, biotinylated NbE201 on streptavidin sensors, protease in solution
T5 construct: also called pPE; PPE
Description: (§2) The biosensors were then immersed in a 50 nM solution of a serine protease. The proteases tested were human cathepsin G (hCG), human proteinase 3 (hPR3), mouse pancreatic elastase (mPE), mouse neutrophil elastase (mNE) and porcine pancreatic elastase (pPE). hNE was used a positive control. The association and dissociation were measured for 70 s and 320 s respectively, in kinetic buffer (KB, Sartorius). The experiments were carried out at 30° C. in 384-wells black-bottom microplates in polypropylene (Greiner Bio-One, Belgium) and with orbital agitation (1000 rpm).

[10] = biological target: T3, human proteinase 3; experiment: as above
Description: as §2

[11] = biological target: T4, human cathepsin G; experiment: as above
Description: as §2

[12] = biological target: T2, human neutrophil elastase; experiment: BLI, comparison of the values in Table 2

T5 sequence (P00772 27-266): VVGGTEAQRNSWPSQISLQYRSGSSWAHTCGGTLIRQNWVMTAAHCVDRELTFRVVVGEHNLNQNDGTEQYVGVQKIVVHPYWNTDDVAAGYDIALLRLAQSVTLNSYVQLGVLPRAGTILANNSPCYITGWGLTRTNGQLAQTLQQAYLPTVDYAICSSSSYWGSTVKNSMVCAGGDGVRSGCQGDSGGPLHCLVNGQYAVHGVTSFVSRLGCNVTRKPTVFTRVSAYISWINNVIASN

Binder | Ki [1] [nM] | IC50, inhibition of elastin hydrolysis by hNE (132 nM) [2] [nM] | fold inhibitory activity relative to mNE [2] [fold] | molar ratio inhibitor:hNE for total elastase inhibition in vitro [2] | inhibition of protease activity at NbE201:enzyme ratio of 60 [3] [%] | IC50, inhibition of hydrolysis of N-Succinyl-Ala-Ala-Ala-paraNitroAnilide by hNE (50 nM) [4] [nM] | IC50, inhibition of hydrolysis of MeOSuc-Ala-Ala-Pro-Val-AMC by mNE (14.7 nM) [5] [nM] | Ki [6] [nM] | Kd [7] [nM] | koff [7] [s⁻¹] | kon [7] [M⁻¹ s⁻¹] | Kd [8] [nM] | koff [8] [s⁻¹] | kon [8] [M⁻¹ s⁻¹] | binding result [9] | binding result [10] | binding result [11] | fold affinity relative to mNE [12] [fold]
B1 | 38.8 | 488 | ~10 | 3 NbE201:hNE molar ratio | 20 | 38.3 | 49.4 | 4.1 |  |  |  |  |  |  |  |  |  | 
B2 |  |  |  |  |  |  |  |  | 49 | 0.019 | 390000 | 1.3 | 0.0032 | 2.6e+06 | no binding (tested: 50 nM) | no binding (tested: 50 nM) | no binding (tested: 50 nM) | ~10
